Results from the supplement of paper PMC10567573.

B1: ZNF511 (parent)
chain: FDALDDYEHHYHTLHGNVCSFCKR
B2: VENTX (parent)
chain: VFQHHQYLSPLERKRLAREMQLSE

Variants of: B1
Assay: protein stability index of a GFP-peptide fusion (GPS, HEK-293T) (PSI 1-6); higher = more stable
Conditions: c terminus: a fixed tail appended
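Also: lentivirally expressed fusions sorted by FACS into six bins by GFP to DsRed ratio, PSI derived from sequencing read proportions per bin multiplied by bin number.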

Variant | protein stability index
FDALDDYEHHYHTLHGNVCSFCKH [R24H] | 3.79
FDALDDYEHHYHTLHGNVCSFCKI [R24I] | 3.08
FDALDDYEHHYHTLHGNVCSFCKG [R24G] | 4.01
FDALDDYEHHYHTLHGNVCSFCKQ [R24Q] | 4.25
FDALDDYEHHYHTLHGNVCSFCKK [R24K] | 4.25
FDALDDYEHHYHTLHGNVCSFCKC [R24C] | 3.58
FDALDDYEHHYHTLHGNVCSFCKW [R24W] | 2.95
FDALDDYEHHYHTLHGNVCSFCKN [R24N] | 4.02
FDALDDYEHHYHTLHGNVCSFCKA [R24A] | 3.58
FDALDDYEHHYHTLHGNVCSFCKF [R24F] | 2.13
FDALDDYEHHYHTLHGNVCSFCKE [R24E] | 4.25
FDALDDYEHHYHTLHGNVCSFCKM [R24M] | 3.6
FDALDDYEHHYHTLHGNVCSFCKP [R24P] | 3.17
FDALDDYEHHYHTLHGNVCSFCKS [R24S] | 3.8
FDALDDYEHHYHTLHGNVCSFCKT [R24T] | 3.84
FDALDDYEHHYHTLHGNVCSFCKD [R24D] | 4.06
FDALDDYEHHYHTLHGNVCSFCKL [R24L] | 3.35
FDALDDYEHHYHTLHGNVCSFCHR [K23H] | 3.07
FDALDDYEHHYHTLHGNVCSFCWR [K23W] | 1.93
FDALDDYEHHYHTLHGNVCSFCAR [K23A] | 3.47
FDALDDYEHHYHTLHGNVCSFCIR [K23I] | 2.89
FDALDDYEHHYHTLHGNVCSFCLR [K23L] | 3.03
FDALDDYEHHYHTLHGNVCSFCPR [K23P] | 3
FDALDDYEHHYHTLHGNVCSFCQR [K23Q] | 3.71
FDALDDYEHHYHTLHGNVCSFCTR [K23T] | 3.25
FDALDDYEHHYHTLHGNVCSFCER [K23E] | 3.97
FDALDDYEHHYHTLHGNVCSFCRR [K23R] | 4.04
FDALDDYEHHYHTLHGNVCSFCGR [K23G] | 4.15

Variant | protein stability index
FDALDDYEHHYHTLHGNVCSFCSR [K23S] | 3.6
FDALDDYEHHYHTLHGNVCSFCMR [K23M] | 3.92
FDALDDYEHHYHTLHGNVCSFCVR [K23V] | 3.28
FDALDDYEHHYHTLHGNVCSFCNR [K23N] | 3.96
FDALDDYEHHYHTLHGNVCSFCDR [K23D] | 3.45
FDALDDYEHHYHTLHGNVCSFCCR [K23C] | 3.25
FDALDDYEHHYHTLHGNVCSFCYR [K23Y] | 2.59
FDALDDYEHHYHTLHGNVCSFCFR [K23F] | 2.67
FDALDDYEHHYHTLHGNKCSFCKR [V18K] | 4.05
FDALDDYEHHYHTLHGNTCSFCKR [V18T] | 3.76
FDALDDYEHHYHTLHGNFCSFCKR [V18F] | 2.97
FDALDDYEHHYHTLHGNNCSFCKR [V18N] | 3.89
FDALDDYEHHYHTLHGNICSFCKR [V18I] | 3.53
FDALDDYEHHYHTLHGNPCSFCKR [V18P] | 4.49
FDALDDYEHHYHTLHGNYCSFCKR [V18Y] | 3.7
FDALDDYEHHYHTLHGNMCSFCKR [V18M] | 3.68
FDALDDYEHHYHTLHGNCCSFCKR [V18C] | 3.66
FDALDDYEHHYHTLHGNECSFCKR [V18E] | 4.36
FDALDDYEHHYHTLHGNLCSFCKR [V18L] | 3.83
FDALDDYEHHYHTLHGNACSFCKR [V18A] | 3.7
FDALDDYEHHYHTLHGNDCSFCKR [V18D] | 4.12
FDALDDYEHHYHTLHGNHCSFCKR [V18H] | 2.93
FDALDDYEHHYHTLHGNGCSFCKR [V18G] | 4.05
FDALDDYEHHYHTLHGNSCSFCKR [V18S] | 3.82
FDALDDYEHHYHTLHGNRCSFCKR [V18R] | 3.88
FDALDDYEHHYHTLHGNWCSFCKR [V18W] | 2.8
FDALDDYEHHYHTLHGNQCSFCKR [V18Q] | 4.18

Variants of: B2
Assay: as above
Conditions: c terminus: a fixed tail appended

Variant | protein stability index
VRQHHQYLSPLERKRLAREMQLSE [F2R] | 3.02
VTQHHQYLSPLERKRLAREMQLSE [F2T] | 3.05
VPQHHQYLSPLERKRLAREMQLSE [F2P] | 4.18
VMQHHQYLSPLERKRLAREMQLSE [F2M] | 3.1
VKQHHQYLSPLERKRLAREMQLSE [F2K] | 3.61
VCQHHQYLSPLERKRLAREMQLSE [F2C] | 3.08
VNQHHQYLSPLERKRLAREMQLSE [F2N] | 2.97
VAQHHQYLSPLERKRLAREMQLSE [F2A] | 2.11
VEQHHQYLSPLERKRLAREMQLSE [F2E] | 4.48
VWQHHQYLSPLERKRLAREMQLSE [F2W] | 2.42
VDQHHQYLSPLERKRLAREMQLSE [F2D] | 4.44
VGQHHQYLSPLERKRLAREMQLSE [F2G] | 3.57
VVQHHQYLSPLERKRLAREMQLSE [F2V] | 2.55
VQQHHQYLSPLERKRLAREMQLSE [F2Q] | 4
VLQHHQYLSPLERKRLAREMQLSE [F2L] | 3.22
VIQHHQYLSPLERKRLAREMQLSE [F2I] | 3.12
VYQHHQYLSPLERKRLAREMQLSE [F2Y] | 3.01
VSQHHQYLSPLERKRLAREMQLSE [F2S] | 3.91
VHQHHQYLSPLERKRLAREMQLSE [F2H] | 3.38
VFAHHQYLSPLERKRLAREMQLSE [Q3A] | 3.03

Variant | protein stability index
AFQHHQYLSPLERKRLAREMQLSE [V1A] | 2.28
QFQHHQYLSPLERKRLAREMQLSE [V1Q] | 2.19
RFQHHQYLSPLERKRLAREMQLSE [V1R] | 2.42
MFQHHQYLSPLERKRLAREMQLSE [V1M] | 2.38
EFQHHQYLSPLERKRLAREMQLSE [V1E] | 2.49
CFQHHQYLSPLERKRLAREMQLSE [V1C] | 2.45
HFQHHQYLSPLERKRLAREMQLSE [V1H] | 2.34
IFQHHQYLSPLERKRLAREMQLSE [V1I] | 2.36
KFQHHQYLSPLERKRLAREMQLSE [V1K] | 2.6
NFQHHQYLSPLERKRLAREMQLSE [V1N] | 2.9
FFQHHQYLSPLERKRLAREMQLSE [V1F] | 2.1
GFQHHQYLSPLERKRLAREMQLSE [V1G] | 2.09
LFQHHQYLSPLERKRLAREMQLSE [V1L] | 3.38
YFQHHQYLSPLERKRLAREMQLSE [V1Y] | 2.36
WFQHHQYLSPLERKRLAREMQLSE [V1W] | 1.92
SFQHHQYLSPLERKRLAREMQLSE [V1S] | 3.1
DFQHHQYLSPLERKRLAREMQLSE [V1D] | 2.83
PFQHHQYLSPLERKRLAREMQLSE [V1P] | 2.35
TFQHHQYLSPLERKRLAREMQLSE [V1T] | 2.88
